Source: patent US6818617B1 (Temple University- Of The Commonwealth System of Higher …, priority 1997, dated 2004)
Entries after “also recorded” stand apart in the source; their conditions may differ. Read-outs that look alike come from different tables or passages of the source.

Tests used:
α4β1 and α4β7 integrins = test: Panel of α4 integrin cell adhesion assays; assay type: cell-based; conditions: range over assays
Description: (§1) Adhesion of cultured cells labeled with 5-chloromethylfluorescein diacetate (CMFDA) was performed as described earlier (Marcinkiewicz et al., Blood 90:1565-1575 (1997)). […] Wells were blocked by 1% BSA in HBSS buffer. Cells were labeled with fluorescein by incubation with 12.5 AM CMFDA in HBSS buffer containing 1% BSA at 37° C. by 15 min. Unbound label was removed by washing with the same buffer. Labeled cells (1×10^5 per sample) were added to the well in the presence or absence of inhibitors and incubated at 37° C. for 30 min. Unbound cells were removed by aspiration, the wells were washed and bound cells were lysed by adding 0.5% Triton X-100. In parallel the standard curve was prepared in the same plate from known concentrations of labelled cells. The plate was read using a Cytofluor 2350 fluorescence plate reader (Millipore, Bedford, Mass.) at 485 nm EX(excitation) filter and 530 nm (emmision) filter.
(§2) The effect of each peptide on cell adhesion was determined as described above. […] Cells that attached to the plates were lysed with detergent, and fluorescence intensity was measured. Percent inhibition was measured at each concentration and IC50 was determined.

α4β7 [1] = molecular target: T1, α4β7 (Homo sapiens, UniProt P13612+P26010); test: RPMI 8866 cell adhesion to MadCAM-1; assay type: cell-based; design: endogenous in cells; host or cells: JY cells (A11); RPMI 8866 cells (A12); conditions: RPMI 8866 cells, α4β7, ligand MadCAM-1
Description: as §1, §2

αvβ3 = molecular target: T2, αvβ3 (Homo sapiens, UniProt P05106+P06756); test: VNRC3 (CHOαvβ3+) cell adhesion to immobilized vitronectin; assay type: cell-based
T2 construct: expressed in transfected cells; host or cells: CHO (VNRC3 cells), gift of Dr. M. Ginsberg
Description: as §1, §2

α4β1 integrin [2] = molecular target: T3, α4β1 integrin (Homo sapiens, UniProt P05556+P13612); test: HP2/1 antibody binding to Jurkat cells by flow cytometry; conditions: 60 nM EC3, 10 μg/ml HP 2/1, flow cytometry
T3 construct: host or cells: Jurkat
Description: (§3) Samples for flow cytometry analysis were prepared as described (Marcinkiewicz et al., Biochem. J. 371:118-124 (1996)), and analyzed in a Coulter Epics flow cytometer (Miami, Fla.).
(§4) The adhesion study was performed using CMFDA-labeled Jurkat cells in the absence or presence 1 mM GRGDSP or GRGESP, or 10 μg/ml HP 2/1. Competition between EC3 and HP2/1 was also confirmed in cell suspension using FACS analysis. […] The experiment was performed using flow cytometry. Jurkat cells (open bars) or B2-CHO cells (CHO cells with deleted α5 transfected with α4) (closed bars) were incubated with 10 μg/ml HP 2/1 in the absence (a) or presence 60 nM EC3 (b) for 30 min at room temperature. After washing, 10 μg/ml of FITC-conjugated goat anti-mouse IgG was added and samples were incubated for another 30 min at room temperature. The samples were fixed by addition of 1% paraformaldehyde before measurement of fluorescence intensity.

α4β1 [3] = molecular target: T4, α4β1 (Homo sapiens, UniProt P05556+P13612); test: Jurkat cell adhesion to immobilized VCAM-1; assay type: cell-based; design: host or cells: Jurkat
Description: as §1
The cell adhesion assay (as described in Example 1) was used to study the inhibitory effect of the eluted fractions on Jurkat cell adhesion to immobilized VCAM-1 and on K562 cell adhesion to fibronectin. […]
as §2

α6β1 = molecular target: T5, α6β1 (Homo sapiens, UniProt P05556+P23229); test: K562 (α6+) cell adhesion to laminin; assay type: cell-based
T5 construct: expressed in transfected cells; host or cells: K562 transfected with α6
Description: as §1, §2

αIIbβ3 [4] = molecular target: T6, αIIbβ3 (Homo sapiens, UniProt P05106+P08514); test: A5 (CHOαIIbβ3+) cell adhesion to immobilized fibrinogen; assay type: cell-based; conditions: A5 (CHOαIIbβ3+) cells, ligand Fg
Description: as §1, §2

α4β1 integrin [5] = molecular target: T7, α4β1 integrin (UniProt G3HZ55+P13612); test: HP2/1 antibody binding to α4B2 cells by flow cytometry; design: species or system human; conditions: 60 nM EC3, 10 μg/ml HP 2/1, flow cytometry
T7 construct: expressed in transfected cells; host or cells: B2 CHO cells (α5-deficient), gift of Dr. Y. Takada
Description: as §3, §4

α4β7 [6] = molecular target: T1, α4β7; conditions: read-out: IC50, direct binding assay; JY cells, α4β7, VCAM-Ig
Description: (§5) The direct binding assay (DBA) with VCAM-11 g alkaline phosphatase conjugate was performed using Jurkat (α4β1 expressing) and JY (α4β7 expressing) cells according to procedure described in Lobb et al, Cell Adhes. Commun. 3:385-398 (1995)).

α4β1 [7] = molecular target: T4, α4β1; conditions: read-out: IC50, direct binding assay; Jurkat cells, α4β1, VCAM-Ig
Description: as §5

α4 inactive G190A mutant = molecular target: T8, α4 inactive G190A mutant (Homo sapiens, UniProt P13612, G223A); test: Adhesion of CHO cells transfected with α4 G190A mutant to immobilized EC3; assay type: cell-based; conditions: EC3 2 μg/well immobilized; adhesion identical with non transfected cells
T8 construct: expressed in transfected cells; host or cells: CHO, gift of Dr. Y. Takada
Description: as §1
EC3 (2 μg/well) and HP2/1 (1 μg/well) were immobilized on the 96well plate. The CHO cells were labeled with CMFDA and adhesion was performed as described above. […] Only A2 cells expressing wild type α4 adhered to immobilized HP2/1.

α4β1 [8] = molecular target: T9, α4β1 (UniProt G3HZ55+P13612); test: α4B2 (CHOα4+/α5−) cell adhesion to immobilized VCAM-1; assay type: cell-based, human; design: expressed in transfected cells; host or cells: B2 CHO cells (α5-deficient), gift of Dr. Y. Takada; conditions: α4B2 (CHOα4+/α5−) cells, ligand VCAM-1
Description: as §1
Chinese hamster ovary cells transfected with human α4 integrin were provided by Dr. Y. Takada (Scripps Research Institute, La Jolla, Calif.). […] The bound cells were lysed with 0.5% Triton X-100, and fluorescence was measured.
as §2

α5β1 = molecular target: T10, α5β1 (Homo sapiens, UniProt P05556+P08648); test: K562 cell adhesion to immobilized fibronectin; assay type: cell-based; conditions: 5 μg per sample of protein from fraction
T10 construct: host or cells: K562
Description: as §1

[9] = system: lymphocyte infiltration of pancreatic Langerhans islets; test: Lymphocyte infiltration of Langerhans islets in Non Obese Diabetic (NOD) mice; assay type: in vivo, mouse
Description: Female NOD mice from […] of age were purchased from Jackson Laboratory (Bar Harbor, Me.).
After nine weeks of treatment the animals were sacrificed by exposure to CO2. The pancreas was removed, frozen, and stored at −70° C. until the histological analysis. For the histological analysis, five μm sections of frozen tissue were fixed with acetone. For detection of infiltrating lymphocytes, the sections were stained with hematoxylin/eosin, and observed by light microscopy.

α4β1 [10] = molecular target: T4, α4β1; test: Jurkat cell adhesion to CS-1; assay type: cell-based; design: host or cells: Jurkat; conditions: Jurkat cells, ligand CS-1
Description: as §1, §2

αIIbβ3 [11] = molecular target: T6, αIIbβ3; test: ADP-induced platelet aggregation in platelet rich plasma (ADP PA); assay type: cell-based; design: endogenous in cells; host or cells: platelets in platelet rich plasma; conditions: Platelets, αIIbβ3, ligand Fg, 30 μM ADP
Description: Blood from a healthy donor was collected into a syringe containing sodium citrate as an anticoagulant. The anticoagulated blood was centrifuged at 400 g for 17 minutes, and platelet rich plasma (PRP) was removed by aspiration.

α4β1 [12] = molecular target: T9, α4β1; test: A2 (CHOα4+) cell adhesion to immobilized VCAM-1; assay type: cell-based, human; design: expressed in transfected cells; host or cells: CHO (A2 cells, α4+ α5+), gift of Dr. Y. Takada; conditions: A2 (CHOα4+) cells, ligand VCAM-1
Description: as §1, §2

T5 sequence (P23229 24-938 limits assumed): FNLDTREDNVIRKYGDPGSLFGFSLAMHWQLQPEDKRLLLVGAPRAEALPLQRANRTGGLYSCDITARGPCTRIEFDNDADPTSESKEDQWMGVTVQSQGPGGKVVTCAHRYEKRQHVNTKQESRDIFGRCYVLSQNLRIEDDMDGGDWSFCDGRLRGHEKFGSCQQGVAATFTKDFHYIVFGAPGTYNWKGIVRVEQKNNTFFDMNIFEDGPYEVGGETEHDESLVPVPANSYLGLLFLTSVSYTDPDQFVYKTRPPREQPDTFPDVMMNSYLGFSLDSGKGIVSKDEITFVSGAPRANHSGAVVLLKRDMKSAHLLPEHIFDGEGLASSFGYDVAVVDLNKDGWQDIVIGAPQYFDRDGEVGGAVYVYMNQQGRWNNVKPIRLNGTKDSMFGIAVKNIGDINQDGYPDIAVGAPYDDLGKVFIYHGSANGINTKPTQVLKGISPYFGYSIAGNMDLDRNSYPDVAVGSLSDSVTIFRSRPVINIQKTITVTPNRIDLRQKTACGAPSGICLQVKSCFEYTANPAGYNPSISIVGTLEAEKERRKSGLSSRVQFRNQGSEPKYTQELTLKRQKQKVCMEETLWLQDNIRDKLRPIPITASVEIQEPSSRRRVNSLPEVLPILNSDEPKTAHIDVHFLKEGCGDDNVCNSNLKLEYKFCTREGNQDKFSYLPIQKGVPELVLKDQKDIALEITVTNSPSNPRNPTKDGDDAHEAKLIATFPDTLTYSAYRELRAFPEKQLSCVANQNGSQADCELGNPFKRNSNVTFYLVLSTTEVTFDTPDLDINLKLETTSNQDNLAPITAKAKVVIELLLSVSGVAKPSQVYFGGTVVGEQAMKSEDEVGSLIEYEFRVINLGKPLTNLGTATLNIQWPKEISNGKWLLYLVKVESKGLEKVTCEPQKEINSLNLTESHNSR
T5 sequence (P23229 942-1130 partner limits assumed): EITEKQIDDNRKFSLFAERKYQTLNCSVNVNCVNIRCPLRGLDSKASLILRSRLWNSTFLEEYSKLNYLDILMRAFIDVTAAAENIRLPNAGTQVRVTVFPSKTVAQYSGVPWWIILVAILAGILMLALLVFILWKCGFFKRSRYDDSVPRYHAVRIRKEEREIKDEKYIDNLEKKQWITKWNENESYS
T5 sequence (P05556 21-798): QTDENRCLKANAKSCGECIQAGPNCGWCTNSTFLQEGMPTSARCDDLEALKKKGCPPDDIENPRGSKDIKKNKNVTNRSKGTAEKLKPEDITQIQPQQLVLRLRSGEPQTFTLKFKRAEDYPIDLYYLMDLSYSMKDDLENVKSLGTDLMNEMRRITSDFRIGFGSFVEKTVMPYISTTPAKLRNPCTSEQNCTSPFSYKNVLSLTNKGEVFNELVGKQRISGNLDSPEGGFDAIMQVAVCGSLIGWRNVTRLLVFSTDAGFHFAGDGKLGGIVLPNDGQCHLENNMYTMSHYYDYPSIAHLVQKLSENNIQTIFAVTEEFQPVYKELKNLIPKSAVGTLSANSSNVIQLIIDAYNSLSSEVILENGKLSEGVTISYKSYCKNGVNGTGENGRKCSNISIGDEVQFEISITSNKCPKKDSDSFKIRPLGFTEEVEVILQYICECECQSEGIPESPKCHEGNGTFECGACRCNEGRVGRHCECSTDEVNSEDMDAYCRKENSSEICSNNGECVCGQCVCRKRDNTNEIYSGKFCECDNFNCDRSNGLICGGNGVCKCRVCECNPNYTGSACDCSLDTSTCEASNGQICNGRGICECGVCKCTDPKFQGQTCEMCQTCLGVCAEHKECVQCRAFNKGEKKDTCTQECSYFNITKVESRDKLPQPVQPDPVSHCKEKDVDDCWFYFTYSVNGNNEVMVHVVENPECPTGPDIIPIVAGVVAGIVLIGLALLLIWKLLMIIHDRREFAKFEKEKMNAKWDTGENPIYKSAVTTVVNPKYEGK
T2 sequence (P06756 31-889 limits assumed): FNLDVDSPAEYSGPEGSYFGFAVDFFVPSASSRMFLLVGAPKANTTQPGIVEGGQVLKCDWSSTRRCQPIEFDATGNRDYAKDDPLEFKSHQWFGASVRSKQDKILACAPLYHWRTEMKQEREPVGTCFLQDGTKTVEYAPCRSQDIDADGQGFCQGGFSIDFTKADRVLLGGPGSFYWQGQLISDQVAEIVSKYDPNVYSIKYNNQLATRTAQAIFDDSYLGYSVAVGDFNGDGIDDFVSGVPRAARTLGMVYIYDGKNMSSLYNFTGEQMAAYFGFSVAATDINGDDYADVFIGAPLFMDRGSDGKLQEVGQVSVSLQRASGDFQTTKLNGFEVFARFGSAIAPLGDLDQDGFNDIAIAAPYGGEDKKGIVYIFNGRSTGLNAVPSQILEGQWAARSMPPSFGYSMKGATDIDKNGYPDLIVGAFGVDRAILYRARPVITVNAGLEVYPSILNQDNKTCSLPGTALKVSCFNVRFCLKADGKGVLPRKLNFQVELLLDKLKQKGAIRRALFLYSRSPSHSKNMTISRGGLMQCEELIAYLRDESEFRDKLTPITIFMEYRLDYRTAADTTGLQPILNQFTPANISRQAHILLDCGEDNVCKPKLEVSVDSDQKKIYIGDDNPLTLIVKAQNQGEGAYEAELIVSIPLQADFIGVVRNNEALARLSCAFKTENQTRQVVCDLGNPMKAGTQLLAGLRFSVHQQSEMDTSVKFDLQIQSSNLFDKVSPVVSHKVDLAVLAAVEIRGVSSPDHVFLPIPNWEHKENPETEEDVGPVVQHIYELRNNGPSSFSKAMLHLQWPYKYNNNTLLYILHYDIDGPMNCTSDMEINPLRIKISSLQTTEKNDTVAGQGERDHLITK
T2 sequence (P06756 891-1048 partner limits assumed): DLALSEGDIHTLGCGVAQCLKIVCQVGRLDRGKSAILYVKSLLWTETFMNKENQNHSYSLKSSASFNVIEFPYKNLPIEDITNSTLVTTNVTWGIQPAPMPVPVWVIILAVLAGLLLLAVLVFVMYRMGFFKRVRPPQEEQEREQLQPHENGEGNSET
T2 sequence (P05106 27-788): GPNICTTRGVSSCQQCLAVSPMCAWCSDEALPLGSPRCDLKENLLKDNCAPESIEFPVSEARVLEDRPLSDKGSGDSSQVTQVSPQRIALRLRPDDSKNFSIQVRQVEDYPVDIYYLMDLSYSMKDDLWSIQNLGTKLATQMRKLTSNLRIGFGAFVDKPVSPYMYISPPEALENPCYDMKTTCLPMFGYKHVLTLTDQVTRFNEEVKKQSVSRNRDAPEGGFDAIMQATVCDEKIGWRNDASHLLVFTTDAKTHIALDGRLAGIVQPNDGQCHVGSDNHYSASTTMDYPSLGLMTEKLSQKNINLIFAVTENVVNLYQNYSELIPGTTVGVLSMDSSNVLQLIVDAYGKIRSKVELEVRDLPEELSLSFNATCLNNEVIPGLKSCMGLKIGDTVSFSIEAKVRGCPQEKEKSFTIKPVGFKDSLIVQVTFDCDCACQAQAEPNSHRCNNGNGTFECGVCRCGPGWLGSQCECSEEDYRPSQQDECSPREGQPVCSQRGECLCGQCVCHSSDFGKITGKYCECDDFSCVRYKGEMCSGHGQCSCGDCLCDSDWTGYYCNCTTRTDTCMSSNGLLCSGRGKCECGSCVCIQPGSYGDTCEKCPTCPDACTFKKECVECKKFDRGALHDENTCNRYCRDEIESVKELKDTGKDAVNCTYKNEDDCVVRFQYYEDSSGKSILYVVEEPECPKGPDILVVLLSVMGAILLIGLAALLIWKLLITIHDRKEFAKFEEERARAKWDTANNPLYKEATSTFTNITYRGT
T10 sequence (P08648 42-894 limits assumed): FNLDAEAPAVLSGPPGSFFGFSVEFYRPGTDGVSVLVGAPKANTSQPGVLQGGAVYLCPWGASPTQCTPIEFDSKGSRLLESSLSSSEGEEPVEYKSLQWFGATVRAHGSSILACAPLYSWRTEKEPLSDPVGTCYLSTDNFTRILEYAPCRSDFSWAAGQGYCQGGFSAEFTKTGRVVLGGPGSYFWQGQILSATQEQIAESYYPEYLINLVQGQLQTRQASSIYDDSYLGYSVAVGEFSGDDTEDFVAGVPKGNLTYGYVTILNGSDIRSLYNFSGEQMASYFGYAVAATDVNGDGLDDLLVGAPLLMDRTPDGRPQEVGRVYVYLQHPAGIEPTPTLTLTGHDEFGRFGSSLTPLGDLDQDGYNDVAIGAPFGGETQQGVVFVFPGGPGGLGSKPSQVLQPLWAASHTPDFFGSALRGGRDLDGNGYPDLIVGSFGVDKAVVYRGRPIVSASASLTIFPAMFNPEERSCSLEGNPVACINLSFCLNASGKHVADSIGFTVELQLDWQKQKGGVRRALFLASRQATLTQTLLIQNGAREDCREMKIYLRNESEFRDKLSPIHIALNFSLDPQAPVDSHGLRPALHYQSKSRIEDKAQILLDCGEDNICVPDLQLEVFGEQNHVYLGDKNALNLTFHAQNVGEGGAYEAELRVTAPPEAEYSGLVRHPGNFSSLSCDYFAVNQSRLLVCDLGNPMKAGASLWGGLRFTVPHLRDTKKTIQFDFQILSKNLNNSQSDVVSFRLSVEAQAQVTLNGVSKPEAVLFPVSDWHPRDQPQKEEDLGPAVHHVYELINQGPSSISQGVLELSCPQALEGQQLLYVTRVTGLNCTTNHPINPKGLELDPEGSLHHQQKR
T10 sequence (P08648 895-1049 partner limits assumed): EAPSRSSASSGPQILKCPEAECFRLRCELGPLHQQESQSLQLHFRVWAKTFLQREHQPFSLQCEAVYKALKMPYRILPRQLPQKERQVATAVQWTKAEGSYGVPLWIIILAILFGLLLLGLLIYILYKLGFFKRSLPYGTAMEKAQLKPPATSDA
T10 sequence (P05556 21-798): as the sequence (P05556 21-798) above

B1: EC-3 (protein, listed as Echis carinatus)
chain 1: NSVHPCCDPVKCEPREGEHCISGPCCRNCYFLRAGTVCKRAVGDDVDDYCSGITPDCPRNRYKGKED
chain 2: NSVHPCCDPVKCEPREGEHCISGPCCRNCKFLNAGTICKRAMLDGLNDYCTGISTDCPRNRYKGKED
- IC50 (α4β1 and α4β7 integrins; anchorage-dependent and anchorage-independent cells, read-out: concentration of highly potent inhibition of interaction of cells expressing α4β1 with VCAM-1 or CS-1): 20 to 300 nM
- IC50 (α4β1 and α4β7 integrins; read-out: IC50, adhesion of cells expressing α4β1 and α4β7 integrins to VCAM-1 and MadCAM-1): 5 to 300 nM
- IC50 (α4β7 [1]): 5 nM
- IC50 (αvβ3; VNRC3 (CHOαvβ3+) cells, ligand Vn): > 10 µM
- inhibition of αvβ3-dependent adhesion (αvβ3; up to 10 μM): no inhibition
- inhibition of HP2/1 binding to Jurkat cells (α4β1 integrin [2]): No inhibitory effect
- inhibitory effect on Jurkat cell binding to immobilized VCAM-1 (α4β1 [3]; 5 μg per sample of protein from fraction): significant inhibitory effects
- IC50 (α4β1 [3]; Jurkat cells, ligand VCAM-1, read-out: IC50, cell adhesion): 25 nM
- IC50 (α6β1; K562 (α6+) cells, α6β1, ligand Lm): > 10 µM
- inhibition of adhesion to laminin of K562 cells transfected with α6 (α6β1; at concentration 10 μM): neither echistatin nor EC3 inhibited
- IC50 (αIIbβ3 [4]): 500 nM
- inhibition of HP2/1 binding to α4B2 cells (α4β1 integrin [5]): inhibition of HP2/1 binding
- IC50 (α4β7 [6]): 6 nM
- IC50 (α4β1 [7]): 28 nM
- interaction of inactive G190A α4 mutant with immobilized EC3 (α4 inactive G190A mutant): did not interact
- IC50 (α4β1 [8]): 30 nM
- inhibition of binding of K562 cells to immobilized fibronectin (α5β1): inhibited binding
- Number of Islets, Infiltration Score ++ ([9]; ++ = ⅓ of the islet infiltrated, of 27 (echistatin) or 29 (EC-3) islets, nine weeks i.p.): 7
- Number of Islets, Infiltration Score +++ ([9]; +++ = ½ or more of the islet infiltrated, of 27 (echistatin) or 29 (EC-3) islets, nine weeks i.p.): 0
- Number of Animals without infiltration ([9]; NOD mice, i.p. three times per week for nine weeks, echistatin 1 μg/mouse, EC-3 3 μg/mouse, 10 animals per group): 2
- effect on lymphocyte infiltration in pancreatic islets of NOD mice (in words) ([9]; echistatin 1 μg/mouse, EC-3 3 μg/mouse, i.p. three times per week, nine weeks): reduced levels of lymphocyte infiltration; also recorded: can block lymphocyte invasion; also recorded: reduced the level of lymphocyte infiltration
- Number of Islets, Infiltration Score − ([9]; − = no infiltration, of 27 (echistatin) or 29 (EC-3) islets, nine weeks i.p.): 10
- IC50 (α4β1 [10]): 100 nM
- IC50 (αIIbβ3 [11]): 1000 nM
- IC50 (α4β1 [12]): 30 nM
